In patent publication US20200385745:

B1: keratinase derived from Brevibacillus parabrevis (CGMCC No. 10798), parent keratinase (protein)
chain: AQTVPYGIPQIKAPAVHAQGYKGANVKVAVLDTGIHAAHPDLNVAGGASFVPSEPNATQDFQSHGTHVAGTIAALDNTIGVLGVAPSASLYAVKVLDRYGDGQYSWIISGIEWAVANNMDVINMSLGGPSGSTALKNTVDTANNRGVVVVAAAGNSGSSGSSSTVGYPAKYDSTIAVANVNSNNVRNSSSSAGPELDVSAPGTSILSTVPSSGYTSYTGTSMASPHVAGAAALILSKNPNLTNSQVRQRLENTATPLGDSFYYGKGLINVQAASN
B2: keratinase mutant T218S (protein)
chain: AQTVPYGIPQIKAPAVHAQGYKGANVKVAVLDTGIHAAHPDLNVAGGASFVPSEPNATQDFQSHGTHVAGTIAALDNTIGVLGVAPSASLYAVKVLDRYGDGQYSWIISGIEWAVANNMDVINMSLGGPSGSTALKNTVDTANNRGVVVVAAAGNSGSSGSSSTVGYPAKYDSTIAVANVNSNNVRNSSSSAGPELDVSAPGTSILSTVPSSGYTSSTGTSMASPHVAGAAALILSKNPNLTNSQVRQRLENTATPLGDSFYYGKGLINVQAASN
B3: keratinase double mutant N181D-T218S (protein)
chain: AQTVPYGIPQIKAPAVHAQGYKGANVKVAVLDTGIHAAHPDLNVAGGASFVPSEPNATQDFQSHGTHVAGTIAALDNTIGVLGVAPSASLYAVKVLDRYGDGQYSWIISGIEWAVANNMDVINMSLGGPSGSTALKNTVDTANNRGVVVVAAAGNSGSSGSSSTVGYPAKYDSTIAVANVDSNNVRNSSSSAGPELDVSAPGTSILSTVPSSGYTSYSGTSMASPHVAGAAALILSKNPNLTNSQVRQRLENTATPLGDSFYYGKGLINVQAASN
B4: keratinase mutant N181D (protein)
chain: AQTVPYGIPQIKAPAVHAQGYKGANVKVAVLDTGIHAAHPDLNVAGGASFVPSEPNATQDFQSHGTHVAGTIAALDNTIGVLGVAPSASLYAVKVLDRYGDGQYSWIISGIEWAVANNMDVINMSLGGPSGSTALKNTVDTANNRGVVVVAAAGNSGSSGSSSTVGYPAKYDSTIAVANVDSNNVRNSSSSAGPELDVSAPGTSILSTVPSSGYTSYTGTSMASPHVAGAAALILSKNPNLTNSQVRQRLENTATPLGDSFYYGKGLINVQAASN
B5: keratinase mutant S236C (protein)
chain: AQTVPYGIPQIKAPAVHAQGYKGANVKVAVLDTGIHAAHPDLNVAGGASFVPSEPNATQDFQSHGTHVAGTIAALDNTIGVLGVAPSASLYAVKVLDRYGDGQYSWIISGIEWAVANNMDVINMSLGGPSGSTALKNTVDTANNRGVVVVAAAGNSGSSGSSSTVGYPAKYDSTIAVANVNSNNVRNSSSSAGPELDVSAPGTSILSTVPSSGYTSYTGTSMASPHVAGAAALILCKNPNLTNSQVRQRLENTATPLGDSFYYGKGLINVQAASN

The proteins below were run against keratin (substrate of the keratinase activity assay).
B1 gave a Km of 2100 µM. With B2 the Km was 1500 µM. B3 was tested, and the Km was 1800 µM. In the case of B4, the Km is reported as 1900 µM. Work on B5 yielded a Km of 2200 µM.
